Experimental data published in US6545137.

Molecular target: low-density lipoprotein (LDL), 125I-labelled
Assay: cell-based or functional assay

Substance	LDL uptake (40 ug/ml 125I-LDL, 4 h, 37 C, FH fibroblasts infected with LDL-receptor adenovirus)	LDL uptake (40 ug/ml 125I-LDL, 4 h, 37 C, FH fibroblasts infected with LRP5 adenovirus)
human LDL-receptor (from UniProt P01130 22-860)	20 fold	–
human LRP5 (LDL-receptor related protein-5), isoform 1 (from UniProt O75197 32-1615)	–	60 % increase
